One block for each sequence: values may come before it.
Experiments:
HLA-C*15:02 = assay: IEDB peptide-MHC binding, purified MHC/direct/fluorescence; filed as Kd, often an IC50 or EC50 that approximates it; ≥ and ≤ were set here for values at or beyond the usual limits of such assays; conditions: source organism: Yersinia pseudotuberculosis IP 31758
HLA-C*14:02 [1] = assay: as above; conditions: source organism: Yersinia pseudotuberculosis IP 31758
HLA-A*02:01 = assay: IEDB peptide-MHC binding, purified MHC/competitive/fluorescence; filed as Kd, often an IC50 or EC50 that approximates it; ≥ and ≤ were set here for values at or beyond the usual limits of such assays
HLA-A*32:07 = assay: as above
HLA-B*27:20 = assay: as above
HLA-B*45:06 = assay: as above
HLA-C*06:02 [2] = assay: as above; conditions: source organism: Yersinia pseudotuberculosis IP 31758
HLA-B*15:42 = assay: as above
HLA-B*83:01 = assay: as above
HLA-B*40:13 = assay: as above
HLA-C*07:02 = assay: IEDB peptide-MHC binding, purified MHC/direct/fluorescence; filed as Kd, often an IC50 or EC50 that approximates it; ≥ and ≤ were set here for values at or beyond the usual limits of such assays
HLA-A*24:02 [3] = assay: IEDB peptide-MHC binding, purified MHC/competitive/fluorescence; ≥ and ≤ were set here for values at or beyond the usual limits of such assays; conditions: source organism: Homo sapiens
HLA-B*40:02 = assay: as above; conditions: source organism: Homo sapiens
HLA-A*01:01 [4] = assay: IEDB peptide-MHC binding, purified MHC/direct/fluorescence; filed as Kd, often an IC50 or EC50 that approximates it; ≥ and ≤ were set here for values at or beyond the usual limits of such assays; conditions: source organism: Homo sapiens
HLA-A*11:01 = assay: as above; conditions: source organism: Homo sapiens
HLA-B*15:01 [5] = assay: as above
HLA-A*01:01 [6] = assay: IEDB peptide-MHC binding, purified MHC/competitive/radioactivity; ≥ and ≤ were set here for values at or beyond the usual limits of such assays; conditions: source organism: Homo sapiens
HLA-C*03:03 = assay: IEDB peptide-MHC binding, purified MHC/direct/fluorescence; filed as Kd, often an IC50 or EC50 that approximates it; ≥ and ≤ were set here for values at or beyond the usual limits of such assays; conditions: source organism: Escherichia coli HS
HLA-C*06:02 [7] = assay: as above; conditions: source organism: Escherichia coli HS
HLA-C*12:03 = assay: as above; conditions: source organism: Escherichia coli HS
HLA-C*14:02 [8] = assay: IEDB peptide-MHC binding, purified MHC/competitive/fluorescence; filed as Kd, often an IC50 or EC50 that approximates it; ≥ and ≤ were set here for values at or beyond the usual limits of such assays; conditions: source organism: Escherichia coli HS
HLA-A*32:15 = assay: as above; conditions: source organism: Escherichia coli HS
HLA-B*48:01 = assay: as above; conditions: source organism: Escherichia coli HS
HLA-C*04:01 = assay: as above; conditions: source organism: Escherichia coli HS
HLA-A*01:01 [9] = assay: as above; conditions: source organism: Corynebacterium glutamicum ATCC 13032
HLA-B*27:05 = assay: as above; conditions: source organism: Corynebacterium glutamicum ATCC 13032
HLA-B*07:02 = assay: as above; conditions: source organism: Corynebacterium glutamicum ATCC 13032
HLA-A*03:01 [10] = assay: as above
HLA-B*15:01 [11] = assay: as above; conditions: source organism: Corynebacterium glutamicum ATCC 13032
HLA-B*40:01 = assay: as above; conditions: source organism: Corynebacterium glutamicum ATCC 13032
HLA-B*58:01 = assay: as above; conditions: source organism: Corynebacterium glutamicum ATCC 13032
HLA-A*24:02 [12] = assay: as above; conditions: source organism: Corynebacterium glutamicum ATCC 13032
HLA-A*02:16 = assay: IEDB peptide-MHC binding, purified MHC/direct/fluorescence; filed as Kd, often an IC50 or EC50 that approximates it; ≥ and ≤ were set here for values at or beyond the usual limits of such assays; conditions: source organism: Zaire ebolavirus
HLA-A*02:11 = assay: as above; conditions: source organism: Zaire ebolavirus
HLA-A*03:01 [13] = assay: as above; conditions: source organism: Zaire ebolavirus
HLA-A*02:19 = assay: as above; conditions: source organism: Zaire ebolavirus
HLA-A*02:03 = assay: as above; conditions: source organism: Zaire ebolavirus
HLA-A*68:02 = assay: as above; conditions: source organism: Zaire ebolavirus
HLA-A*02:12 = assay: as above; conditions: source organism: Zaire ebolavirus
HLA-A*25:01 = assay: IEDB peptide-MHC binding, purified MHC/competitive/fluorescence; filed as Kd, often an IC50 or EC50 that approximates it; ≥ and ≤ were set here for values at or beyond the usual limits of such assays; conditions: source organism: Zaire ebolavirus
HLA-B*27:03 = assay: as above; conditions: source organism: Zaire ebolavirus
HLA-B*51:01 = assay: as above; conditions: source organism: Zaire ebolavirus
HLA-A*69:01 = assay: as above; conditions: source organism: Zaire ebolavirus
HLA-B*39:01 = assay: as above; conditions: source organism: Zaire ebolavirus
HLA-B*35:01 = assay: as above; conditions: source organism: Zaire ebolavirus
HLA-A*26:01 = assay: as above; conditions: source organism: Zaire ebolavirus
HLA-B*57:01 = assay: as above; conditions: source organism: Zaire ebolavirus
HLA-A*31:01 = assay: as above; conditions: source organism: Shigella flexneri 5 str. 8401
HLA-A*68:23 = assay: as above; conditions: source organism: Shigella flexneri 5 str. 8401
[14] = source organism: Yersinia pseudotuberculosis IP 31758
[15] = source organism: Escherichia coli HS
[16] = source organism: Corynebacterium glutamicum ATCC 13032
[17] = source organism: Shigella flexneri 5 str. 8401

Sequence: FQWWRSHPL
- Kd (HLA-C*15:02): 1400 nM
- Kd (HLA-C*14:02 [1]): 232 nM
- Kd (HLA-A*02:01; [14]): ≤ 0.1 nM
- Kd (HLA-A*32:07; [14]): 73.6 nM
- Kd (HLA-B*27:20; [14]): ≤ 0.1 nM
- Kd (HLA-B*45:06; [14]): ≥ 5000 nM
- Kd (HLA-C*06:02 [2]): 837 nM
- Kd (HLA-B*15:42; [14]): ≥ 5000 nM
- Kd (HLA-B*83:01; [14]): 475 nM
- Kd (HLA-B*40:13; [14]): 1.3 nM

- Kd (HLA-C*07:02; source organism: Homo sapiens): 182 nM
- IC50 (HLA-A*24:02 [3]): 305 nM
- IC50 (HLA-B*40:02): ≥ 20000 nM
Sequence: FYYNAFHWAI

- Kd (HLA-A*01:01 [4]): 164 nM
- Kd (HLA-A*11:01): 2020 nM
- Kd (HLA-B*15:01 [5]; source organism: Homo sapiens): 1090 nM
- IC50 (HLA-A*01:01 [6]): 7 nM
Sequence: IVDCLTEMY

Sequence: MMWATAQAL
- Kd (HLA-C*03:03): 337 nM
- Kd (HLA-C*07:02; [15]): 572 nM
- Kd (HLA-C*06:02 [7]): ≥ 20000 nM
- Kd (HLA-C*12:03): 1640 nM
- Kd (HLA-A*32:07; [15]): 42 nM
- Kd (HLA-B*27:20; [15]): 6.4 nM
- Kd (HLA-C*14:02 [8]): 6.4 nM
- Kd (HLA-B*45:06; [15]): ≥ 5000 nM
- Kd (HLA-B*15:42; [15]): ≥ 5000 nM
- Kd (HLA-B*83:01; [15]): ≥ 5000 nM
- Kd (HLA-A*32:15): 391 nM
- Kd (HLA-B*48:01): 242 nM
- Kd (HLA-C*04:01): ≥ 5000 nM
- Kd (HLA-B*40:13; [15]): 212 nM

- Kd (HLA-A*01:01 [9]): 14.1 nM
- Kd (HLA-A*02:01; [16]): ≥ 20000 nM
- Kd (HLA-B*27:05): ≥ 20000 nM
- Kd (HLA-B*07:02): ≥ 20000 nM
- Kd (HLA-A*03:01 [10]; [16]): 161 nM
- Kd (HLA-B*15:01 [11]): 46.5 nM
- Kd (HLA-B*40:01): ≥ 20000 nM
- Kd (HLA-B*58:01): 6.1 nM
- Kd (HLA-A*24:02 [12]): ≥ 20000 nM
Sequence: MSSAAHLLY

Sequence: NFFHASLAY
- Kd (HLA-A*02:16): ≥ 20000 nM
- Kd (HLA-A*02:11): ≥ 20000 nM
- Kd (HLA-A*03:01 [13]): ≥ 20000 nM
- Kd (HLA-B*15:01 [5]; source organism: Sudan ebolavirus - Maleo (1979)): 64.1 nM
- Kd (HLA-A*02:19): ≥ 20000 nM
- Kd (HLA-A*02:03): ≥ 20000 nM
- Kd (HLA-A*68:02): ≥ 20000 nM
- Kd (HLA-A*02:12): ≥ 20000 nM
- Kd (HLA-A*25:01): ≥ 20000 nM
- Kd (HLA-A*02:01; source organism: Zaire ebolavirus): ≥ 20000 nM
- Kd (HLA-B*27:03): ≥ 20000 nM
- Kd (HLA-B*51:01): ≥ 20000 nM
- Kd (HLA-A*69:01): ≥ 20000 nM
- Kd (HLA-B*39:01): ≥ 20000 nM
- Kd (HLA-B*35:01): 6 nM
- Kd (HLA-A*26:01): ≥ 20000 nM
- Kd (HLA-B*57:01): ≥ 20000 nM

Sequence: TTIPTNLFR
- Kd (HLA-A*03:01 [10]; [17]): 3000 nM
- Kd (HLA-A*31:01): 121 nM
- Kd (HLA-B*45:06; [17]): ≥ 5000 nM
- Kd (HLA-B*15:42; [17]): ≥ 5000 nM
- Kd (HLA-B*83:01; [17]): ≥ 5000 nM
- Kd (HLA-A*68:23): 332 nM

Reference: the Immune Epitope Database (IEDB)
